# Laboratory results taken from FireProtDB (doi:10.1021/bi00212a026).
# B1: Ribonuclease, P00648 (parent)
# chain: MMKMEGIALKKRLSWISVCLLVLVSAAGMLFSTAAKTETSSHKAHTEAQVINTFDGVADYLQTYHKLPDNYITKSEAQALGWVASKGNLADVAPGKSIGGDIFSNREGKLPGKSGRTWREADINYTSGFRNSDRILYSSDWLIYKTTDHYQTFTKIR
# Variants of: B1
# Details: Bacillus amyloliquefaciens; pH 6.3; 25 °C; Urea; Fluorescence; MES 50 mM; NaCl 0.15 M; reversible: yes; structure 1BNI; whole UniProt chain shown
Variant,ddG of mutation (higher = less stable) [kcal/mol],denaturant m value [kcal/mol/M],denaturant midpoint (higher = more stable) [M],unfolding free energy [kcal/mol]
I51A I98V,2.63,2.11,2.92,6.16
I51A I123V,1.86,1.92,3.61,6.93
I51A Y125F,2.53,1.95,3.21,6.26
I123T,2.69,1.87,3.26,6.1
